Km, kcat and kcat/Km data for six proteins are collected here from publication PMC10577934, “Semi-rational engineering an aldo–keto reductase for stereocomplementary reduction of α-keto amide compounds” (Microbial Cell Factories, 2023).

Sequences and labels used below:
B1: iolS (Bacillus subtilis subsp. subtilis str. 168) (protein)
chain: MKKAKLGKSDLQVFPIGLGTNAVGGHNLYPNLNEETGKELVREAIRNGVTMLDTAYIYGIGRSEELIGEVLREFNREDVVIATKAAHRKQGNDFVFDNSPDFLKKSVDESLKRLNTDYIDLFYIHFPDEHTPKDEAVNALNEMKKAGKIRSIGVSNFSLEQLKEANKDGLVDVLQGEYNLLNREAEKTFFPYTKEHNISFIPYFPLVSGLLAGKYTEDTTFPEGDLRNEQEHFKGERFKENIRKVNKLAPIAEKHNVDIPHIVLAWYLARPEIDILIPGAKRADQLIDNIKTADVTLSQEDISFIDKLFA
notes: pET28a, His-tagged, expressed in E. coli BL21(DE3), Ni-NTA purified
B2: iolS (Bacillus subtilis subsp. subtilis str. 168; F126A/N21A) (protein)
chain: MKKAKLGKSDLQVFPIGLGTAAVGGHNLYPNLNEETGKELVREAIRNGVTMLDTAYIYGIGRSEELIGEVLREFNREDVVIATKAAHRKQGNDFVFDNSPDFLKKSVDESLKRLNTDYIDLFYIHAPDEHTPKDEAVNALNEMKKAGKIRSIGVSNFSLEQLKEANKDGLVDVLQGEYNLLNREAEKTFFPYTKEHNISFIPYFPLVSGLLAGKYTEDTTFPEGDLRNEQEHFKGERFKENIRKVNKLAPIAEKHNVDIPHIVLAWYLARPEIDILIPGAKRADQLIDNIKTADVTLSQEDISFIDKLFA
notes: as for B1
B3: iolS (Bacillus subtilis subsp. subtilis str. 168; N21A) (protein)
chain: MKKAKLGKSDLQVFPIGLGTAAVGGHNLYPNLNEETGKELVREAIRNGVTMLDTAYIYGIGRSEELIGEVLREFNREDVVIATKAAHRKQGNDFVFDNSPDFLKKSVDESLKRLNTDYIDLFYIHFPDEHTPKDEAVNALNEMKKAGKIRSIGVSNFSLEQLKEANKDGLVDVLQGEYNLLNREAEKTFFPYTKEHNISFIPYFPLVSGLLAGKYTEDTTFPEGDLRNEQEHFKGERFKENIRKVNKLAPIAEKHNVDIPHIVLAWYLARPEIDILIPGAKRADQLIDNIKTADVTLSQEDISFIDKLFA
notes: as for B1
B4: iolS (Bacillus subtilis subsp. subtilis str. 168; F126L/I57F) (protein)
chain: MKKAKLGKSDLQVFPIGLGTNAVGGHNLYPNLNEETGKELVREAIRNGVTMLDTAYFYGIGRSEELIGEVLREFNREDVVIATKAAHRKQGNDFVFDNSPDFLKKSVDESLKRLNTDYIDLFYIHLPDEHTPKDEAVNALNEMKKAGKIRSIGVSNFSLEQLKEANKDGLVDVLQGEYNLLNREAEKTFFPYTKEHNISFIPYFPLVSGLLAGKYTEDTTFPEGDLRNEQEHFKGERFKENIRKVNKLAPIAEKHNVDIPHIVLAWYLARPEIDILIPGAKRADQLIDNIKTADVTLSQEDISFIDKLFA
notes: as for B1
B5: iolS (Bacillus subtilis subsp. subtilis str. 168; I57F) (protein)
chain: MKKAKLGKSDLQVFPIGLGTNAVGGHNLYPNLNEETGKELVREAIRNGVTMLDTAYFYGIGRSEELIGEVLREFNREDVVIATKAAHRKQGNDFVFDNSPDFLKKSVDESLKRLNTDYIDLFYIHFPDEHTPKDEAVNALNEMKKAGKIRSIGVSNFSLEQLKEANKDGLVDVLQGEYNLLNREAEKTFFPYTKEHNISFIPYFPLVSGLLAGKYTEDTTFPEGDLRNEQEHFKGERFKENIRKVNKLAPIAEKHNVDIPHIVLAWYLARPEIDILIPGAKRADQLIDNIKTADVTLSQEDISFIDKLFA
notes: as for B1
B6: iolS (Bacillus subtilis subsp. subtilis str. 168; F126L) (protein)
chain: MKKAKLGKSDLQVFPIGLGTNAVGGHNLYPNLNEETGKELVREAIRNGVTMLDTAYIYGIGRSEELIGEVLREFNREDVVIATKAAHRKQGNDFVFDNSPDFLKKSVDESLKRLNTDYIDLFYIHLPDEHTPKDEAVNALNEMKKAGKIRSIGVSNFSLEQLKEANKDGLVDVLQGEYNLLNREAEKTFFPYTKEHNISFIPYFPLVSGLLAGKYTEDTTFPEGDLRNEQEHFKGERFKENIRKVNKLAPIAEKHNVDIPHIVLAWYLARPEIDILIPGAKRADQLIDNIKTADVTLSQEDISFIDKLFA
notes: as for B1

Substrate in the data set: O=C(Nc1ccccc1)C(=O)c1ccccc1
The data set is described as follows: initial velocity by HPLC of product, nonlinear Michaelis-Menten fit. It is filed as biochemical, Bacillus subtilis. The conditions noted are these: NAD(P)H cofactor, potassium phosphate 100 mM pH 7.0, 30 °C. An excerpt: initial velocity by HPLC of product, nonlinear Michaelis-Menten fit on iolS
One may read the Km as the substrate concentration at which the rate is half of its maximum. What is called kcat is the maximal rate divided by the concentration of active sites. For orientation: kcat/Km means the turnover number divided by the Michaelis constant. Turning to B1, the Michaelis constant (Km) was determined as 1810 ± 130 µM, the kcat amounted to 3.53 ± 0.12 s⁻¹ and the kcat/Km turned out to be 1950 M⁻¹ s⁻¹.

For the protein B2, the Michaelis constant (Km) turned out to be 1650 ± 120 µM, the kcat amounted to 6.4 ± 0.25 s⁻¹ and the kcat/Km was found to be 3880 M⁻¹ s⁻¹.

Regarding B3, the Michaelis-Menten constant (Km) came out at 1160 ± 160 µM, the turnover number (kcat) was found to be 4.1 ± 0.12 s⁻¹ and the kcat/Km stood at 3530 M⁻¹ s⁻¹.

In the case of B4, the Km was determined as 1710 ± 110 µM, the turnover number (kcat) came to 4.32 ± 0.14 s⁻¹ and the kcat/Km is 2510 M⁻¹ s⁻¹.

In the case of B5, the Km turned out to be 1720 ± 130 µM, the kcat worked out at 3.96 ± 0.23 s⁻¹ and the catalytic efficiency (kcat/Km) was determined as 2320 M⁻¹ s⁻¹.

Consider B6, for which the Km is 1550 ± 220 µM, the kcat worked out at 3.81 ± 0.13 s⁻¹ and the specificity constant (kcat/Km) was found to be 2450 M⁻¹ s⁻¹.
